Measured values as given in article PMC7950113.

Experiments:
Assay in all cases: Co-AP mass spectrometry with TMT quantification
PRKCSH = conditions: HEK293 cells; TMT intensities of interactors normalized to Tg intensities; read off a plot
MOGS = conditions: HEK293 cells; TMT intensities of interactors normalized to Tg intensities; read off a plot
PSMD3 = conditions: HEK293 cells; TMT intensities of interactors normalized to Tg intensities; read off a plot
UGGT2 = conditions: HEK293 cells; TMT intensities of interactors normalized to Tg intensities; read off a plot
PSMA1 = conditions: HEK293 cells; TMT intensities of interactors normalized to Tg intensities; read off a plot
PSMB4 = conditions: HEK293 cells; TMT intensities of interactors normalized to Tg intensities; read off a plot
PSME2 = conditions: HEK293 cells; TMT intensities of interactors normalized to Tg intensities; read off a plot
PSMC4 = conditions: HEK293 cells; TMT intensities of interactors normalized to Tg intensities; read off a plot
[1] = molecular target: oligosaccharyl transferase complex catalytic subunit A [human (endogenous in HEK293 cells)]; conditions: TMT intensities of interactors normalized to Tg intensities, read off a plot
[2] = molecular target: calreticulin [human (endogenous in HEK293 cells)]; conditions: TMT intensities of interactors normalized to Tg intensities, read off a plot

Row | Substance | other: log2 fold change vs WT (MOGS) | other: log2 fold change vs WT (PSMD3) | other: log2 fold change vs WT (UGGT2) | other: log2 fold change vs WT (PSMA1) | other: log2 fold change vs WT (PSMB4) | other: log2 fold change vs WT (PSME2) | screen value [1] | also measured
1 | FLAG-tagged thyroglobulin, WT (from UniProt P01266) A2234D | 0.09 log2 | -0.35 log2 | 0.15 log2 | -0.28 log2 | -0.33 log2 | -0.27 log2 | – | other: log2 fold change vs WT (PRKCSH): -0.39 log2
2 | FLAG-tagged thyroglobulin, WT (from UniProt P01266) C1264R | -0.15 log2 | -0.45 log2 | -0.09 log2 | -0.27 log2 | -0.35 log2 | -0.54 log2 | – | other: log2 fold change vs WT (PRKCSH): -0.05 log2; other: log2 fold change vs WT (PSMC4): -0.53 log2
3 | FLAG-tagged thyroglobulin, WT (from UniProt P01266) G2341R | -0.05 log2 | -0.42 log2 | 0.73 log2 | 0.04 log2 | -0.53 log2 | -0.65 log2 | – | other: log2 fold change vs WT (PSMC4): -0.51 log2
4 | FLAG-tagged thyroglobulin, WT (from UniProt P01266) L2284P | -0.02 log2 | -0.33 log2 | 0.49 log2 | -0.04 log2 | -0.51 log2 | -0.45 log2 | – | other: log2 fold change vs WT (PSMC4): -0.27 log2
5 | FLAG-tagged thyroglobulin, WT mutant A2234D [human] / oligosaccharyl transferase complex catalytic subunit A [human (endogenous in HEK293 cells)] chain 1 A2215D | – | – | – | – | – | – | -0.15 log2 | –
6 | FLAG-tagged thyroglobulin, WT mutant C1264R [human] / calreticulin [human (endogenous in HEK293 cells)] chain 1 C1245R | – | – | – | – | – | – | – | screen value [2]: 0.18 log2
7 | FLAG-tagged thyroglobulin, WT mutant C1264R [human] / oligosaccharyl transferase complex catalytic subunit A [human (endogenous in HEK293 cells)] chain 1 C1245R | – | – | – | – | – | – | -0.37 log2 | –
8 | FLAG-tagged thyroglobulin, WT mutant G2341R [human] / calreticulin [human (endogenous in HEK293 cells)] chain 1 G2322R | – | – | – | – | – | – | – | screen value [2]: 0.46 log2
9 | FLAG-tagged thyroglobulin, WT mutant G2341R [human] / oligosaccharyl transferase complex catalytic subunit A [human (endogenous in HEK293 cells)] chain 1 G2322R | – | – | – | – | – | – | -0.21 log2 | –
10 | FLAG-tagged thyroglobulin, WT mutant L2284P [human] / calreticulin [human (endogenous in HEK293 cells)] chain 1 L2265P | – | – | – | – | – | – | – | screen value [2]: 0.5 log2
11 | FLAG-tagged thyroglobulin, WT mutant L2284P [human] / oligosaccharyl transferase complex catalytic subunit A [human (endogenous in HEK293 cells)] chain 1 L2265P | – | – | – | – | – | – | -0.1 log2 | –
